# T1: Neisserial heparin-binding antigen (NHBA) peptide 20 (Neisseria meningitidis strain 2996, UniProt Q9JPP1 18-427)
# T1 construct: NHBA variant p20 (short variant) of N. meningitidis strain 2996, UniProt Q9JPP1; also called NHBA p20; NHBAp20
# T1 sequence: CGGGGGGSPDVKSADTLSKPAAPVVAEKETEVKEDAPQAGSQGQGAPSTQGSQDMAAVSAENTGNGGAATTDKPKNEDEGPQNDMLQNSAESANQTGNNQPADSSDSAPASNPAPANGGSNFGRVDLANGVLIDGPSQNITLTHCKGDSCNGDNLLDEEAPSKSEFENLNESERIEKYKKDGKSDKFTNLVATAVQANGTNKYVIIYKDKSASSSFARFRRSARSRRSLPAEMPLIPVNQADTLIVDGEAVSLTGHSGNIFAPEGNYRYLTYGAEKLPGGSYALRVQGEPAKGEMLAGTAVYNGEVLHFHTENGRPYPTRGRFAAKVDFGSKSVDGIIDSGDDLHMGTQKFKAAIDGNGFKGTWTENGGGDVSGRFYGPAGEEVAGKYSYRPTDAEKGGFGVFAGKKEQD
# B1: Fab 12E1 (Fab, V domains shown)
# VH: QVQLVQSGAEVKKPGASVKVSCKASGYIFTSHPIHWVRQAPGQRPEWMGWINAGNGNTKYSQKFQDRVNLTRDTSASTVFMELINLRFEDTAIYYCIRETKFDPWGQGTLVTVSS
# VL: EIVLTQSPLSLPVTLGQPASISCRSSQDLVYRDGITYLNWFQQRPGQSPRRLIYKVSNRDSGVPDRFSGSGSGTDFTLRISRVEAEDIGVYYCMQGTHWPITFGQGTRLEIKR
# notes: heavy chain of Fab 12E1 (human VH, human IgG1 CH1) as left after TEV cleavage; light chain of Fab 12E1; Fab cloned from a human monoclonal antibody of a Bexsero vaccinee; also called anti-NHBA human Fab 12E1; source: Expi293 cells, transient transfection, purified from supernatant (StrepTrap HP, TEV cleavage, Superdex 200); not shown: double Strep-tag II, C-terminal, cleaved
# Molecular target: T1, Neisserial heparin-binding antigen …
# Test: SPR; Biacore T200, 25 °C; Fab (800-1100 RU) captured by anti-Fab mAbs (Human Fab Capture Kit) on a CM5 chip; NHBA injected, single-cycle kinetics, five injections 6.25-100 nM, 30 µl/min; HBS-EP (10 mM HEPES, 150 mM NaCl, 3 mM EDTA, 0.05% P20, pH 7.4); 1:1 Langmuir model with mass-transfer term; duplicate
# Conditions: both partners purified
binder,measurement,value
B1,Kd,6.2 nM
same,koff,0.0003 s⁻¹
same,kon,49000 M⁻¹ s⁻¹
